Data: paper PMC12455602

Key:
[1] = target: SscR^Ac (RSS-sensitive transcription factor in copper stress response), MarR family transcriptional regulator of Acidithiobacillus caldus (Acidithiobacillus caldus); test: SEC
[2] = target: SscR^Ac after H2Sn treatment (persulfidated SscR^Ac) (Acidithiobacillus caldus); test: SEC

Substance	stoichiometry N [1]	stoichiometry N [2]
SscR^Ac (RSS-sensitive transcription factor in copper stress response), MarR family transcriptional regulator of Acidithiobacillus caldus (natural protein)	4	
SscR^Ac after H2Sn treatment (persulfidated SscR^Ac) (natural protein)		4
